Data taken from patent publication US20180155451A1 (published 2018).

target: T1, FcγRIa extracellular domain with C-terminal His tag (human, UniProt P12314 16-292); assay: SPR Biacore, antibody captured, FcγRIa analyte; vs GpH7-A5/GpH7-B3/GpL16-k0 = 100
T1 construct: extracellular domain; Expressed in FreeStyle293 cells; analyte in Biacore; also called FcgRI; FcgRIa
T1 sequence (P12314 16-292): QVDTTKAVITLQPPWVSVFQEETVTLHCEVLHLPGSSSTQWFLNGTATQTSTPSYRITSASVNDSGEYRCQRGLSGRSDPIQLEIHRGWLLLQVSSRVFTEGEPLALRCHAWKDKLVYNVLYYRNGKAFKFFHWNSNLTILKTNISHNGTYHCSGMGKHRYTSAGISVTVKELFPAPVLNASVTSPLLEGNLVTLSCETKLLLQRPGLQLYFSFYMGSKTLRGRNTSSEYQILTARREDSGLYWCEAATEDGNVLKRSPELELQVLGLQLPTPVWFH

Binder	He/Con_1a
GpH7-A5/GpH7-B3 variant K326_16H/GpL16-k0 (He Ab) (antibody, human IgG1, kappa, He Ab: alteration only in the GpH7-B3 chain) heavy 1: not shown heavy 2: not shown light: DIVMTQSPLSLPVTPGEPASISCQASESLVHSNRNTYLHWYLQKPGQSPQLLIYKVSNRFSGVPDRFSGSGSGTDFTLKISRVEAEDVGVYYCSQNTHVPPTFGQGTKVEIERTVAAPSVFIFPPSDEQLKSGTASVVCLLNNFYPREAKVQWKVDNALQSGNSQESVTEQDSKDSTYSLSSTLTLSKADYEKHKVYACEVTHQGLSSPVTKSFNRGEC	103 relative (control = 100)
GpH7-A5/GpH7-B3 variant K334_10E/GpL16-k0 (He Ab) (antibody, human IgG1, kappa, He Ab: alteration only in the GpH7-B3 chain) heavy 1: not shown heavy 2: not shown light: DIVMTQSPLSLPVTPGEPASISCQASESLVHSNRNTYLHWYLQKPGQSPQLLIYKVSNRFSGVPDRFSGSGSGTDFTLKISRVEAEDVGVYYCSQNTHVPPTFGQGTKVEIERTVAAPSVFIFPPSDEQLKSGTASVVCLLNNFYPREAKVQWKVDNALQSGNSQESVTEQDSKDSTYSLSSTLTLSKADYEKHKVYACEVTHQGLSSPVTKSFNRGEC	110 relative (control = 100)
GpH7-A5/GpH7-B3 variant P271_03V/GpL16-k0 (He Ab) (antibody, human IgG1, kappa, He Ab: alteration only in the GpH7-B3 chain) heavy 1: not shown heavy 2: not shown light: DIVMTQSPLSLPVTPGEPASISCQASESLVHSNRNTYLHWYLQKPGQSPQLLIYKVSNRFSGVPDRFSGSGSGTDFTLKISRVEAEDVGVYYCSQNTHVPPTFGQGTKVEIERTVAAPSVFIFPPSDEQLKSGTASVVCLLNNFYPREAKVQWKVDNALQSGNSQESVTEQDSKDSTYSLSSTLTLSKADYEKHKVYACEVTHQGLSSPVTKSFNRGEC	102 relative (control = 100)
GpH7-A5/GpH7-B3 variant P271_04F/GpL16-k0 (He Ab) (antibody, human IgG1, kappa, He Ab: alteration only in the GpH7-B3 chain) heavy 1: not shown heavy 2: not shown light: DIVMTQSPLSLPVTPGEPASISCQASESLVHSNRNTYLHWYLQKPGQSPQLLIYKVSNRFSGVPDRFSGSGSGTDFTLKISRVEAEDVGVYYCSQNTHVPPTFGQGTKVEIERTVAAPSVFIFPPSDEQLKSGTASVVCLLNNFYPREAKVQWKVDNALQSGNSQESVTEQDSKDSTYSLSSTLTLSKADYEKHKVYACEVTHQGLSSPVTKSFNRGEC	102 relative (control = 100)
GpH7-A5/GpH7-B3 variant P271_06M/GpL16-k0 (He Ab) (antibody, human IgG1, kappa, He Ab: alteration only in the GpH7-B3 chain) heavy 1: not shown heavy 2: not shown light: DIVMTQSPLSLPVTPGEPASISCQASESLVHSNRNTYLHWYLQKPGQSPQLLIYKVSNRFSGVPDRFSGSGSGTDFTLKISRVEAEDVGVYYCSQNTHVPPTFGQGTKVEIERTVAAPSVFIFPPSDEQLKSGTASVVCLLNNFYPREAKVQWKVDNALQSGNSQESVTEQDSKDSTYSLSSTLTLSKADYEKHKVYACEVTHQGLSSPVTKSFNRGEC	102 relative (control = 100)
GpH7-A5/GpH7-B3 variant P271_07I/GpL16-k0 (He Ab) (antibody, human IgG1, kappa, He Ab: alteration only in the GpH7-B3 chain) heavy 1: not shown heavy 2: not shown light: DIVMTQSPLSLPVTPGEPASISCQASESLVHSNRNTYLHWYLQKPGQSPQLLIYKVSNRFSGVPDRFSGSGSGTDFTLKISRVEAEDVGVYYCSQNTHVPPTFGQGTKVEIERTVAAPSVFIFPPSDEQLKSGTASVVCLLNNFYPREAKVQWKVDNALQSGNSQESVTEQDSKDSTYSLSSTLTLSKADYEKHKVYACEVTHQGLSSPVTKSFNRGEC	102 relative (control = 100)
GpH7-A5/GpH7-B3 variant P271_11K/GpL16-k0 (He Ab) (antibody, human IgG1, kappa, He Ab: alteration only in the GpH7-B3 chain) heavy 1: not shown heavy 2: not shown light: DIVMTQSPLSLPVTPGEPASISCQASESLVHSNRNTYLHWYLQKPGQSPQLLIYKVSNRFSGVPDRFSGSGSGTDFTLKISRVEAEDVGVYYCSQNTHVPPTFGQGTKVEIERTVAAPSVFIFPPSDEQLKSGTASVVCLLNNFYPREAKVQWKVDNALQSGNSQESVTEQDSKDSTYSLSSTLTLSKADYEKHKVYACEVTHQGLSSPVTKSFNRGEC	103 relative (control = 100)
GpH7-A5/GpH7-B3 variant P271_12R/GpL16-k0 (He Ab) (antibody, human IgG1, kappa, He Ab: alteration only in the GpH7-B3 chain) heavy 1: not shown heavy 2: not shown light: DIVMTQSPLSLPVTPGEPASISCQASESLVHSNRNTYLHWYLQKPGQSPQLLIYKVSNRFSGVPDRFSGSGSGTDFTLKISRVEAEDVGVYYCSQNTHVPPTFGQGTKVEIERTVAAPSVFIFPPSDEQLKSGTASVVCLLNNFYPREAKVQWKVDNALQSGNSQESVTEQDSKDSTYSLSSTLTLSKADYEKHKVYACEVTHQGLSSPVTKSFNRGEC	102 relative (control = 100)
GpH7-A5/GpH7-B3 variant P271_13S/GpL16-k0 (He Ab) (antibody, human IgG1, kappa, He Ab: alteration only in the GpH7-B3 chain) heavy 1: not shown heavy 2: not shown light: DIVMTQSPLSLPVTPGEPASISCQASESLVHSNRNTYLHWYLQKPGQSPQLLIYKVSNRFSGVPDRFSGSGSGTDFTLKISRVEAEDVGVYYCSQNTHVPPTFGQGTKVEIERTVAAPSVFIFPPSDEQLKSGTASVVCLLNNFYPREAKVQWKVDNALQSGNSQESVTEQDSKDSTYSLSSTLTLSKADYEKHKVYACEVTHQGLSSPVTKSFNRGEC	102 relative (control = 100)
GpH7-A5/GpH7-B3 variant P271_20W/GpL16-k0 (He Ab) (antibody, human IgG1, kappa, He Ab: alteration only in the GpH7-B3 chain) heavy 1: not shown heavy 2: not shown light: DIVMTQSPLSLPVTPGEPASISCQASESLVHSNRNTYLHWYLQKPGQSPQLLIYKVSNRFSGVPDRFSGSGSGTDFTLKISRVEAEDVGVYYCSQNTHVPPTFGQGTKVEIERTVAAPSVFIFPPSDEQLKSGTASVVCLLNNFYPREAKVQWKVDNALQSGNSQESVTEQDSKDSTYSLSSTLTLSKADYEKHKVYACEVTHQGLSSPVTKSFNRGEC	103 relative (control = 100)
GpH7-A5/GpH7-B3 variant Q295_02A/GpL16-k0 (He Ab) (antibody, human IgG1, kappa, He Ab: alteration only in the GpH7-B3 chain) heavy 1: not shown heavy 2: not shown light: DIVMTQSPLSLPVTPGEPASISCQASESLVHSNRNTYLHWYLQKPGQSPQLLIYKVSNRFSGVPDRFSGSGSGTDFTLKISRVEAEDVGVYYCSQNTHVPPTFGQGTKVEIERTVAAPSVFIFPPSDEQLKSGTASVVCLLNNFYPREAKVQWKVDNALQSGNSQESVTEQDSKDSTYSLSSTLTLSKADYEKHKVYACEVTHQGLSSPVTKSFNRGEC	104 relative (control = 100)
